Assay results reported in patent US20150322135A1 (Pfizer, published 2015).
Changes are numbered by the printed parent chain. In names and notes the source's numbering stands. Each block holds one binder with its values, some of them ahead of it.

Legend:
[1] = molecular target: T1, Mouse FcRn protein (mouse, UniProt Q61559 22-297); experiment: SPR pH-switch assay: mouse FcRn immobilised, variant bound at pH 6.0, percent bound in the dissociation phase at neutral pH against pH 6.0
T1 construct: Bought protein; called soluble in the 1-to-1 assay and amine-coupled to the chip in the avidity and pH-switch assays; also called soluble mouse FcRn protein; neonatal Fc receptor
T1 sequence (Q61559 22-297): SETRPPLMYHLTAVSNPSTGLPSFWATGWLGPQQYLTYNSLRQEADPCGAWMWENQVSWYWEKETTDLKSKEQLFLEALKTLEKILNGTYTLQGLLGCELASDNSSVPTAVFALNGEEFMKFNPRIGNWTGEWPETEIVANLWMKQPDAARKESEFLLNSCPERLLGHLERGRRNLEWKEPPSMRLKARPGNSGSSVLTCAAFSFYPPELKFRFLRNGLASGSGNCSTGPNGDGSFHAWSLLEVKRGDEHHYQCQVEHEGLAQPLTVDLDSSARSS
Experimental: (§1) The FcRn binding assays were carried out using a surface plasmon resonance (SPR) biosensor, Biacore 3000 (Biacore, Uppsala, Sweden). The sensor chip CM5, surfactant P20, N-ethyl-N-(3-dimethylaminopropyl)carbodiimide (EDC), N-hydroxysuccinimide (NHS), and 1 M ethanolamine (pH 8.5) were purchased from GE Healthcare (Piscataway, N.J.). The SPR experiments were conducted at 25° C. in PBS buffer (pH 6.0) with 0.005% P20. A Mouse FcRn protein was purchased from ARVYS Proteins, Inc. (Stamford, Conn.). All the experiments were repeated three times.
pH-Switch Assay: In order to evaluate the efficiency of dissociation of Fab-monoFc variants from FcRn at neutral pH, the “pH-switch assay” modified from the method that was previously reported was employed. See, e.g., Wang et al., Drug Metab. Dispos. 39, 1469-1477 (2011). In this assay, mouse FcRn protein was immobilized on a CM5 sensor chip by the amine coupling method. The binding was measured by injecting 100 uM of Fab-monoFc variants in running buffer (PBS, pH 6.0) followed by injection of either running buffer (PBS, pH 6.0) or neutral buffer (PBS, pH 7.2) alone over the FcRn surface at flow rate of 50 μL/min.

[2] = molecular target: T1, Mouse FcRn protein; experiment: SPR 1-to-1 format: variant amine-coupled to CM5 chip, soluble mouse FcRn injected, pH 6.0, steady state
Experimental: as §1
1-to-1 binding Assay—Immobilization of engineered N-glycosylated Fc variants or Fab-mono engineered N-glycosylated Fc variants on a CM5 sensor chip was conducted by the amine coupling method. Briefly, 20 μM protein solution was diluted 20 times in 10 mM acetate (pH 4.5) and injected onto a biosensor surface which had been pre-activated with a 20 uL injection of 1:1 mixture of 200 mM EDC and 50 mM NHS, followed by the injection of 1 M ethanolamine-HCl (pH 8.5). For reference surface, one flow cell was activated by the EDC-NHS mixture and deactivated by ethanol amine without protein. The equilibrium binding was measured by injecting 150 uL of soluble mouse FcRn protein at flow rate of 5 uL/min. The sensor surfaces were regenerated by running PBS buffer (pH 7.2) for 1 min. We observed that all the binding curves of each concentration reached the plateau at the end of injection (30 min).

[3] = molecular target: T1, Mouse FcRn protein; experiment: SPR avidity format: mouse FcRn immobilised on CM5 chip, variant injected, pH 6.0, steady state
Experimental: as §1
(§2) Avidity Assay: —In order to assess the avidity of analyte (molecule in mobile phase), the SPR-based “avidity assay format” was performed as previously described. See, e.g., Zalevsky et al., Nature Biotech. 28, 157-159; Yeung et al., J. Immunol. 182, 7663-7671 (2009); and Suzuki et al., J. Immunol. 184, 1968-1976 (2010). That is, mouse FcRn protein was immobilized on a CM5 sensor chip by the amine coupling method as described above. The equilibrium binding was measured by injecting 30 μL, of Fab-monoFc variants over the FcRn surface at flow rate of 2 μL/min. The sensor surfaces were regenerated by running 100 mM tris-HCl, pH 8.0 for 1 min.

[4] = molecular target: T1, Mouse FcRn protein; experiment: SPR avidity format: FcRn localized on the chip surface
Experimental: as §1, §2

% bound [1]: 1.1% | Kd [2]: 230 nM | Kd [3]: 180 nM
B1: Fab-CH23-HEK (Fab-CH23 [N364/N407] produced from HEK293 transient expression system) (Fc fusion)
heavy: EVQLVESGGGLVQPGGSLRLSCAASGFTFSNYDMYWVRQTTGKGLEWVSAIGTAGDTYYPGSVKGRFTISRENAKNSLYLQMNSLRAGDTAVYYCAREKSSTSAFDYWGQGTLVTVSSASTKGPSVFPLAPSSKSTSGGTAALGCLVKDYFPEPVTVSWNSGALTSGVHTFPAVLQSSGLYSLSSVVTVPSSSLGTQTYICNVNHKPSNTKVDKKVEPKSCDKTHTGGGGSGGGGSGGPSVFLFPPKPKDTLMISRTPEVTCVVVDVSHEDPEVKFNWYVDGVEVHNAKTKPREEQYNSTYRVVSVLTVLHQDWLNGKEYKCKVSNKALPAPIEKTISKAKGQPREPQVYTLPPSREEMTKNQVNLTCLVKGFYPSDIAVEWESNGQPENNYKTTPPVLDSDGSFFLNSTLTVDKSRWQQGNVFSCSVMHEALHNHYTQKSLSLSPGK
light: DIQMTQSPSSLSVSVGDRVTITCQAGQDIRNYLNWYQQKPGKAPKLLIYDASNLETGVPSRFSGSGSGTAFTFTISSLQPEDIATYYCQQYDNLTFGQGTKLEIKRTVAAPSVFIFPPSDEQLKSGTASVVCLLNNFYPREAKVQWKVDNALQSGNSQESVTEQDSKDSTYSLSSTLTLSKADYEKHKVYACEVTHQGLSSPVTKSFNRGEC
modifications: N-linked glycans at Asn297 (natural) and engineered Asn364 and Asn407 (EU numbering), HEK293 glycoform
notes: Same construct as Fab-CH23, made in HEK293 cells instead of CHO cells

% bound [1]: 20% | Kd [2]: 68 nM | Kd [3]: 35 nM
B2: Fab-CH23[M428L/N434S] (FcRn enhancement variant) (Fc fusion)
heavy: B1 heavy with M429L, N435S
light: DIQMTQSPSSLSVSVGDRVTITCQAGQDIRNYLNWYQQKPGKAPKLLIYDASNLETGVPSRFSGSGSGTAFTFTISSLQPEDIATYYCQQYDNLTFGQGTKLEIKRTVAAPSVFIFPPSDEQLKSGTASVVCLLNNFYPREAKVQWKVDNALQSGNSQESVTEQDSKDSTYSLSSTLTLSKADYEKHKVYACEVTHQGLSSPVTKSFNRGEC
modifications: N-linked glycans at Asn297 (natural) and engineered Asn364 and Asn407 (EU numbering)
notes: Made in CHO cells; also called Fab-CH23 [M428L/N434L]

% bound [1]: 5.6% | Kd [2]: 250 nM | Kd [3]: 180 nM
B3: Fab-CH23 (Fab-CH23-N364/N407), Fab of an anti-KLH antibody fused to CH23 (Fc fusion)
heavy: B1 heavy
light: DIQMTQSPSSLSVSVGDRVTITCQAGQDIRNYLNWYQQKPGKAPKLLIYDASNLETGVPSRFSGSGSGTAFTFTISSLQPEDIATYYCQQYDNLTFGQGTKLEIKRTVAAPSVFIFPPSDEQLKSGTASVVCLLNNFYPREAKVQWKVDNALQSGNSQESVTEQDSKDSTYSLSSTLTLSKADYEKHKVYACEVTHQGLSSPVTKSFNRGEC
modifications: N-linked glycans at Asn297 (natural) and engineered Asn364 and Asn407 (EU numbering)
notes: also called Fab-monoFc

% bound [1]: 14% | Kd [2]: 250 nM | Kd [3]: 4.5 nM | fold higher affinity than Fab-CH23 (avidity assay) [4]: ~40 fold
B4: Fab-CH23-CH23 (tandem CH23 construct comprising two engineered Fc polypeptides) (Fc fusion)
heavy: EVQLVESGGGLVQPGGSLRLSCAASGFTFSNYDMYWVRQTTGKGLEWVSAIGTAGDTYYPGSVKGRFTISRENAKNSLYLQMNSLRAGDTAVYYCAREKSSTSAFDYWGQGTLVTVSSASTKGPSVFPLAPSSKSTSGGTAALGCLVKDYFPEPVTVSWNSGALTSGVHTFPAVLQSSGLYSLSSVVTVPSSSLGTQTYICNVNHKPSNTKVDKKVEPKSCDKTHTGGGGSGGGGSGGPSVFLFPPKPKDTLMISRTPEVTCVVVDVSHEDPEVKFNWYVDGVEVHNAKTKPREEQYNSTYRVVSVLTVLHQDWLNGKEYKCKVSNKALPAPIEKTISKAKGQPREPQVYTLPPSREEMTKNQVNLTCLVKGFYPSDIAVEWESNGQPENNYKTTPPVLDSDGSFFLNSTLTVDKSRWQQGNVFSCSVMHEALHNHYTQKSLSLSPGGGGSGGGGSGGGGSGGGGSGGPSVFLFPPKPKDTLMISRTPEVTCVVVDVSHEDPEVKFNWYVDGVEVHNAKTKPREEQYNSTYRVVSVLTVLHQDWLNGKEYKCKVSNKALPAPIEKTISKAKGQPREPQVYTLPPSREEMTKNQVNLTCLVKGFYPSDIAVEWESNGQPENNYKTTPPVLDSDGSFFLNSTLTVDKSRWQQGNVFSCSVMHEALHNHYTQKSLSLSPGK
light: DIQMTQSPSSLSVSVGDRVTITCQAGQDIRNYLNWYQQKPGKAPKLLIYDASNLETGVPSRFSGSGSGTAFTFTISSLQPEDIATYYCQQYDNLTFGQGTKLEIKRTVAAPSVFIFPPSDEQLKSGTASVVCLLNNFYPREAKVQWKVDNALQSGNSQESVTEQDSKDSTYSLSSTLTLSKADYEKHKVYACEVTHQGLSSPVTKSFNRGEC
modifications: N-linked glycans at Asn297 (natural) and engineered Asn364 and Asn407 (EU numbering) in each of the two CH23 units
notes: Made in CHO cells; also called Fab-CH23-4XGS-CH23; tandem CH23-CH23
